Reference: article PMC11055865, “Mechanism of DNA unwinding by MCM8-9 in complex with HROB”

Assays:
HROB-FLAG [1] = biological target: T1, HROB-FLAG (human, UniProt Q8N3J3-4 1-646, T126P); assay: EMSA; 3 mM EDTA; EMSA: 25 mM Tris-acetate pH 7.5, 3 mM EDTA (or 4 mM ATP/ATPgS + 1 mM Mg acetate), 1 mM DTT, 0.1 mg/ml BSA, 1 nM DNA (100 ng for M13), 15 min on ice, gels at 4 C; mass photometry: 25 mM HEPES-NaOH pH 7.5, 2 mM Mg acetate, 1 mM ATP, room temperature; details: protein: recombinant; tags: C-terminal FLAG; label: 3' 32P-dC (terminal transferase); single strand
T1 sequence: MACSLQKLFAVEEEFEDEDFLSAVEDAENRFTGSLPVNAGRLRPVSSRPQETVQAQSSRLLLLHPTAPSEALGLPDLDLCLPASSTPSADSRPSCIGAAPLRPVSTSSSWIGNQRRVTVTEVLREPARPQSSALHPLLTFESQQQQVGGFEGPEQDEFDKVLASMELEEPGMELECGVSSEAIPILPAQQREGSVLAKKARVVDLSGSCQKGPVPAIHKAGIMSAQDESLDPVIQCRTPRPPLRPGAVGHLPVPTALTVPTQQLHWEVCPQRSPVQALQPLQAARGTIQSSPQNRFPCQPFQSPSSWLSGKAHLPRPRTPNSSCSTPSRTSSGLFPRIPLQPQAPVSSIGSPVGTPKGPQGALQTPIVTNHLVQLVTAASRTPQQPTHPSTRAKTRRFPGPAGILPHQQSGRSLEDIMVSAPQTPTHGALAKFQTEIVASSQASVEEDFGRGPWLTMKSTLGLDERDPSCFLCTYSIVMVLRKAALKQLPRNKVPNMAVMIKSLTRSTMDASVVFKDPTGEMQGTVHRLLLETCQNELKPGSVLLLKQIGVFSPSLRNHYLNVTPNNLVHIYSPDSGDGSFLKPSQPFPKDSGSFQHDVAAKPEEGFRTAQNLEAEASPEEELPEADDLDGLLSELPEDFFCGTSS

HROB-ΔOB = biological target: T2, HROB-ΔOB (human, UniProt Q8N3J3-4 1-490+575-646, T126P;internal_change); assay: EMSA; 3 mM EDTA; comparable to WT HROB; EMSA: 25 mM Tris-acetate pH 7.5, 3 mM EDTA (or 4 mM ATP/ATPgS + 1 mM Mg acetate), 1 mM DTT, 0.1 mg/ml BSA, 1 nM DNA (100 ng for M13), 15 min on ice, gels at 4 C; mass photometry: 25 mM HEPES-NaOH pH 7.5, 2 mM Mg acetate, 1 mM ATP, room temperature; details: protein: recombinant; tags: FLAG; label: 3' 32P-dC (terminal transferase); single strand
T2 sequence: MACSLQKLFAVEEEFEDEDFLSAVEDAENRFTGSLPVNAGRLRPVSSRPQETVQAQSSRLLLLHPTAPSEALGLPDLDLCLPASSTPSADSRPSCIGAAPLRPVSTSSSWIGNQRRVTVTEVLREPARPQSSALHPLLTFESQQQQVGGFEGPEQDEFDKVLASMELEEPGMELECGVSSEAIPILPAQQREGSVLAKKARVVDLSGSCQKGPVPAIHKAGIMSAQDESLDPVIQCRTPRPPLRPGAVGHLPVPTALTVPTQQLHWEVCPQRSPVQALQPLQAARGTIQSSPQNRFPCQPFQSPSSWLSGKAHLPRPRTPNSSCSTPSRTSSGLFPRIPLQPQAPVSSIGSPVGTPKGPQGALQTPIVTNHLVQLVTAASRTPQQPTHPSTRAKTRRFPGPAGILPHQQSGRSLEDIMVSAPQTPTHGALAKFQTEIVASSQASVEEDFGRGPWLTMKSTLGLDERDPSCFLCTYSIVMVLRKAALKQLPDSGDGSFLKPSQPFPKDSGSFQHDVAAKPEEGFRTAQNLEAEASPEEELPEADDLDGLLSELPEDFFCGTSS

HROB-FLAG [2] = biological target: T1, HROB-FLAG; assay: EMSA; 3 mM EDTA; preferred; EMSA: 25 mM Tris-acetate pH 7.5, 3 mM EDTA (or 4 mM ATP/ATPgS + 1 mM Mg acetate), 1 mM DTT, 0.1 mg/ml BSA, 1 nM DNA (100 ng for M13), 15 min on ice, gels at 4 C; mass photometry: 25 mM HEPES-NaOH pH 7.5, 2 mM Mg acetate, 1 mM ATP, room temperature; details: protein: recombinant, tags: C-terminal FLAG
MCM8 R309D;MBP-MCM9 = MCM8 R309D;MBP-MCM9 (human;human, UniProt Q9UJA3;Q9NXL9 1-840;1-1143, R309D|); assay: mass photometry; 1 mM ATP, 2 mM Mg acetate; heterodimer bound plus likely hexamer (Peak 4); EMSA: 25 mM Tris-acetate pH 7.5, 3 mM EDTA (or 4 mM ATP/ATPgS + 1 mM Mg acetate), 1 mM DTT, 0.1 mg/ml BSA, 1 nM DNA (100 ng for M13), 15 min on ice, gels at 4 C; mass photometry: 25 mM HEPES-NaOH pH 7.5, 2 mM Mg acetate, 1 mM ATP, room temperature; details: protein: recombinant;recombinant; tags: N-terminal FLAG;N-terminal MBP (not cleaved); chain copies: 3;3; single strand
Chain of MCM8 R309D;MBP-MCM9 (Q9UJA3 whole entry R309D, chain 1 of 2): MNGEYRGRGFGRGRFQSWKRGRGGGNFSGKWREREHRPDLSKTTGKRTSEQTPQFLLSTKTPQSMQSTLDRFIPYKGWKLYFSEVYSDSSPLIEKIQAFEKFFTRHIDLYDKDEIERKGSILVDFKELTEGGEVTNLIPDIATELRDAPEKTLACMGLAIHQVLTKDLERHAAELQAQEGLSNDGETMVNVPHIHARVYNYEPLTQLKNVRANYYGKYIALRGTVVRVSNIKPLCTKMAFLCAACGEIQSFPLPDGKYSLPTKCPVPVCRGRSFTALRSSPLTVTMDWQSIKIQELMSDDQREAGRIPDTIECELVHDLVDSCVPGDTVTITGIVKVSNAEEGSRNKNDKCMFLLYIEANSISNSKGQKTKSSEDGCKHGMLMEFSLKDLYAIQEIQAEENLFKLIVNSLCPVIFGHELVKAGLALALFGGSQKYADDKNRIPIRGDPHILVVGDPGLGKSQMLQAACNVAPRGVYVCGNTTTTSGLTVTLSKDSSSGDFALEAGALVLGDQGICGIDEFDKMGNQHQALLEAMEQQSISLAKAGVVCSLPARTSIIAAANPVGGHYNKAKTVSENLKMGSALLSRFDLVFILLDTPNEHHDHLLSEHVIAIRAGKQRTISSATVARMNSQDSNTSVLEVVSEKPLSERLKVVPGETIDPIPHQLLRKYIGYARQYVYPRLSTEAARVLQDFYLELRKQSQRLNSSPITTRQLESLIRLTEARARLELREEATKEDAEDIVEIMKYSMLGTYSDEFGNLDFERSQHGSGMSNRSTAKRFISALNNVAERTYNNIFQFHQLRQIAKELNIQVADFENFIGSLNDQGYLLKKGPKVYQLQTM
Chain of MCM8 R309D;MBP-MCM9 (Q9NXL9 whole entry, chain 2 of 2): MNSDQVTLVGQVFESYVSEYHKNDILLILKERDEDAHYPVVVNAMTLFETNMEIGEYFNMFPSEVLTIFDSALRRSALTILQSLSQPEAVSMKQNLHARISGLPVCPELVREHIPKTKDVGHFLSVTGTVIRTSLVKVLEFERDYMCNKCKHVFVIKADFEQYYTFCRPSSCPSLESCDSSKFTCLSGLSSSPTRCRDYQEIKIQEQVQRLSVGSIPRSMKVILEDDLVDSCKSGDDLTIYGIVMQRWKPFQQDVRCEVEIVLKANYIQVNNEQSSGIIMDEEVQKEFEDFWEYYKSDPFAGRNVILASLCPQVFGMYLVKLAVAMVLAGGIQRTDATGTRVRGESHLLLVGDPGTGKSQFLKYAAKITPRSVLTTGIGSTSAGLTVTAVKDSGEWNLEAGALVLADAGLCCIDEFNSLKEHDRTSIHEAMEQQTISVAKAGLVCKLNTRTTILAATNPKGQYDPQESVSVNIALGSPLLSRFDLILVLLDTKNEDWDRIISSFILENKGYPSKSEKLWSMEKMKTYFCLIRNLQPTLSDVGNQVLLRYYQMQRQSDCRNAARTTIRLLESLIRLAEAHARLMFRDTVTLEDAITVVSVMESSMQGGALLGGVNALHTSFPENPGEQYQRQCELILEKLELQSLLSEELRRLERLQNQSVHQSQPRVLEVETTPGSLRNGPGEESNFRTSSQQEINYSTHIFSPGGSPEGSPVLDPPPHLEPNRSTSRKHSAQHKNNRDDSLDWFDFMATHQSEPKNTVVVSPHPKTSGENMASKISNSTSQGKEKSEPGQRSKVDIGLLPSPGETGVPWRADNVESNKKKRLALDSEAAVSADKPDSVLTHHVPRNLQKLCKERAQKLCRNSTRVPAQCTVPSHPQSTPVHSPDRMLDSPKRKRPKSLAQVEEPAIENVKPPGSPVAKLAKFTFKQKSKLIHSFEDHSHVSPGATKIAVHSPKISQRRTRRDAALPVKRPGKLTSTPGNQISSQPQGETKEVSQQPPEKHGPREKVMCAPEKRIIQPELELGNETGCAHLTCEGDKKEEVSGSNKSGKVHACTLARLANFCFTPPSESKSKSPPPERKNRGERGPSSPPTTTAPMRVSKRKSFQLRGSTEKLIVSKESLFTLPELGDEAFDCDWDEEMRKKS

B1: X12-3 HJ3 (93 nt ssDNA) (ssDNA)
DNA: GAGATCTATCTGGTGCCTTCTGACAGTGAATGGGTAACGAATCGTAATAGTCTCTAGACAGCATGTCCTAGCAATGTAATCGTCTATGACGTC
binding result (HROB-FLAG [1]): binds | binding result (HROB-ΔOB): binds

B2: Holliday junction (PC1253/PC1254/PC1255/PC1256) (structured_DNA)
DNA 1: TGGGTCAACGTGGGCAAAGATGTCCTAGCAATGTAATCGTCTATGACGTT
DNA 2: TGCCGAATTCTACCAGTGCCAGTGATGGACATCTTTGCCCACGTTGACCC
DNA 3: GTCGGATCCTCTAGACAGCTCCATGATCACTGGCACTGGTAGAATTCGGC
DNA 4: CAACGTCATAGACGATTACATTGCTACATGGAGCTGTCTAGAGGATCCGA
binding result (HROB-FLAG [2]; label: 3' 32P-dC on PC1253, four-way junction 1:2 2:3 3:4 4:1): binds

B3: Y-structure (PC1254/PC1253) (structured_DNA)
DNA 1: TGCCGAATTCTACCAGTGCCAGTGATGGACATCTTTGCCCACGTTGACCC
DNA 2: TGGGTCAACGTGGGCAAAGATGTCCTAGCAATGTAATCGTCTATGACGTT
binding result (HROB-FLAG [2]; label: 3' 32P-dC on PC1254, fork 1:2): binds

B4: PC216 (70 nt ssDNA) (ssDNA)
DNA: GTAAGTGCCGCGGTGCGGGTGCCAGGGCGTGCCCTTGGGCTCCCCGGGCGCGTACTCCACCTCATGCATC
binding result (MCM8 R309D;MBP-MCM9): binds
